Laboratory results from the RNAGym collection of RNA variant scans (doi:10.1093/molbev/msab373).

B1: Azoarcus group I ribozyme (parent)
chain: GUGCCUUGCGCCGGGAAACCACGCAAGGGAUGGUGUCAAAUUCGGCGAAACCUAAGCGCCCGCCCGGGCGUAUGGCAACGCCGAGCCAAGCUUCGGCGCCUGCGCCGAUGAAGGUGUAGAGACUAGACGGCACCCACCUAAGGCAAACGCUAUGGUGAAGGCAUAGUCCAGGGAGUGGCGAAAGUCACACAAACCGG

Variants of: B1
Assay: reverse-splicing fitness (ratio to wild type); higher = more active; in vitro selection; Mg2+ level not given
Procedure, shortened: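 An in vitro group I ribozyme library with randomized positions was T7-transcribed and gel-purified. In triplicate, 10 pmol RNA in EPPS pH 7.5 was reacted with 50 pmoles of a 30-nt RNA substrate for 1 h at 37 °C across several added MgCl2 levels (1–48 mM), then stopped with EDTA. Products were reverse transcribed from a substrate-complementary primer, PCR-amplified and sequenced (HiSeq 4000). Fitness is a variant's read proportion after selection over that before, normalised to wild type.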

Row | Variant | reverse-splicing fitness
1 | GUGCCUUGCGCCGGGAAACCACGCAAGGGAUGGUGUCAAAUUCGGCGAAACCUAAGCGCCCGCCCGGGCGUAUGGCAACGCAGAGCCAAGCUUCGGCGCCUGCGCCGAUGAAGGUGUAGUGACUAGACGGCACCCACCUAAGGCGAACGGUAUGGUGAAGGCAUAGUCCAGGGAGCGGCGAAAGUCACACAAACCGG [C82A A120U A145G C150G U176C] | 0.0117
2 | GUGCCUUGCGCCGGGAAACCACGCAAGGGAUGGUGUCAAAUUCGGCGAAACCUAAGCGCCCGCCCGGGCGUAUGGCAACGCAGAGCCAAGCUUCGGCGCCUGCGCCGAUGAAGGUGUAGUGACUAGACGGCACCCACCUAAGGCGAACGGUAUGGUGAAGGCAUAGUCCAGGGAGGGGCGAAAGUCACACAAACCGG [C82A A120U A145G C150G U176G] | 0.00433
3 | GUGCCUUGCGCCGGGAAACCACGCAAGGGAUGGUGUCAAAUUCGGCGAAACCUAAGCGCCCGCCCGGGCGUAUGGCAACGCAGAGCCAAGCUUCGGCGCCUGCGCCGAUGAAGGUGUAGUGACUAGACGGCACCCACCUAAGGCGAACGGUAUGGUGAAGGCAUAGUCCAGGGAGAGGCGAAAGUCACACAAACCGG [C82A A120U A145G C150G U176A] | 0.00758
4 | GUGCCUUGCGCCGGGAAACCACGCAAGGGAUGGUGUCAAAUUCGGCGAAACCUAAGCGCCCGCCCGGGCGUAUGGCAACGCAGAGCCAAGCUUCGGCGCCUGCGCCGAUGAAGGUGUAGUGACUAGACGGCACCCACCUAAGGCGAACGUUAUGGUGAAGGCAUAGUCAAGGGAGUGGCGAAAGUCACACAAACCGG [C82A A120U A145G C150U C169A] | 0.00691
5 | GUGCCUUGCGCCGGGAAACCACGCAAGGGAUGGUGUCAAAUUCGGCGAAACCUAAGCGCCCGCCCGGGCGUAUGGCAACGCAGAGCCAAGCUUCGGCGCCUGCGCCGAUGAAGGUGUAGUGACUAGACGGCACCCACCUAAGGCGAACGUUAUGGUGAAGGCAUAGUCAAGGGAGCGGCGAAAGUCACACAAACCGG [C82A A120U A145G C150U C169A U176C] | 0.00287
6 | GUGCCUUGCGCCGGGAAACCACGCAAGGGAUGGUGUCAAAUUCGGCGAAACCUAAGCGCCCGCCCGGGCGUAUGGCAACGCAGAGCCAAGCUUCGGCGCCUGCGCCGAUGAAGGUGUAGUGACUAGACGGCACCCACCUAAGGCGAACGUUAUGGUGAAGGCAUAGUCAAGGGAGAGGCGAAAGUCACACAAACCGG [C82A A120U A145G C150U C169A U176A] | 0.00597
7 | GUGCCUUGCGCCGGGAAACCACGCAAGGGAUGGUGUCAAAUUCGGCGAAACCUAAGCGCCCGCCCGGGCGUAUGGCAACGCAGAGCCAAGCUUCGGCGCCUGCGCCGAUGAAGGUGUAGUGACUAGACGGCACCCACCUAAGGCGAACGAUAUGGUGAAGGCAUAGUCGAGGGAGGGGCGAAAGUCACACAAACCGG [C82A A120U A145G C150A C169G U176G] | 0.00227
8 | GUGCCUUGCGCCGGGAAACCACGCAAGGGAUGGUGUCAAAUUCGGCGAAACCUAAGCGCCCGCCCGGGCGUAUGGCAACGCAGAGCCAAGCUUCGGCGCCUGCGCCGAUGAAGGUGUAGUGACUAGACGGCACCCACCUAAGGCGAACGAUAUGGUGAAGGCAUAGUCGAGGGAGAGGCGAAAGUCACACAAACCGG [C82A A120U A145G C150A C169G U176A] | 0.00661
9 | GUGCCUUGCGCCGGGAAACCACGCAAGGGAUGGUGUCAAAUUCGGCGAAACCUAAGCGCCCGCCCGGGCGUAUGGCAACGCAGAGCCAAGCUUCGGCGCCUGCGCCGAUGAAGGUGUAGUGACUAGACGGCACCCACCUAAGGCGAACGAUAUGGUGAAGGCAUAGUCGAGGGAGCGGCGAAAGUCACACAAACCGG [C82A A120U A145G C150A C169G U176C] | 0.00523
10 | GUGCCUUGCGCCGGGAAACCACGCAAGGGAUGGUGUCAAAUUCGGCGAAACCUAAGCGCCCGCCCGGGCGUAUGGCAACGCAGAGCCAAGCUUCGGCGCCUGCGCCGAUGAAGGUGUAGUGACUAGACGGCACCCACCUAAGGCGAACGGUAUGGUGAAGGCAUAGUCAAGGGAGGGGCGAAAGUCACACAAACCGG [C82A A120U A145G C150G C169A U176G] | 0.00515
11 | GUGCCUUGCGCCGGGAAACCACGCAAGGGAUGGUGUCAAAUUCGGCGAAACCUAAGCGCCCGCCCGGGCGUAUGGCAACGCAGAGCCAAGCUUCGGCGCCUGCGCCGAUGAAGGUGUAGUGACUAGACGGCACCCACCUAAGGCGAACGGUAUGGUGAAGGCAUAGUCAAGGGAGCGGCGAAAGUCACACAAACCGG [C82A A120U A145G C150G C169A U176C] | 0.0082
12 | GUGCCUUGCGCCGGGAAACCACGCAAGGGAUGGUGUCAAAUUCGGCGAAACCUAAGCGCCCGCCCGGGCGUAUGGCAACGCAGAGCCAAGCUUCGGCGCCUGCGCCGAUGAAGGUGUAGUGACUAGACGGCACCCACCUAAGGCGAACGGUAUGGUGAAGGCAUAGUCAAGGGAGAGGCGAAAGUCACACAAACCGG [C82A A120U A145G C150G C169A U176A] | 0.0135
13 | GUGCCUUGCGCCGGGAAACCACGCAAGGGAUGGUGUCAAAUUCGGCGAAACCUAAGCGCCCGCCCGGGCGUAUGGCAACGCAGAGCCAAGCUUCGGCGCCUGCGCCGAUGAAGGUGUAGUGACUAGACGGCACCCACCUAAGGCGAACGGUAUGGUGAAGGCAUAGUCCAGGGAGUGGCGAAAGUCACACAAACCGG [C82A A120U A145G C150G] | 0.0192
14 | GUGCCUUGCGCCGGGAAACCACGCAAGGGAUGGUGUCAAAUUCGGCGAAACCUAAGCGCCCGCCCGGGCGUAUGGCAACGCAGAGCCAAGCUUCGGCGCCUGCGCCGAUGAAGGUGUAGUGACUAGACGGCACCCACCUAAGGCGAACGUUAUGGUGAAGGCAUAGUCCAGGGAGUGGCGAAAGUCACACAAACCGG [C82A A120U A145G C150U] | 0.116
15 | GUGCCUUGCGCCGGGAAACCACGCAAGGGAUGGUGUCAAAUUCGGCGAAACCUAAGCGCCCGCCCGGGCGUAUGGCAACGCAGAGCCAAGCUUCGGCGCCUGCGCCGAUGAAGGUGUAGUGACUAGACGGCACCCACCUAAGGCGAACGAUAUGGUGAAGGCAUAGUCUAGGGAGUGGCGAAAGUCACACAAACCGG [C82A A120U A145G C150A C169U] | 0.00423
